Measurements as given in patent publication US20010029293A1 (ICOS, published 2001).

Assays:
[1] = biological target: T1, LFA-1 (CD11a/CD18) on cells (human, UniProt P20701 26-1170; P05107 23-769); assay: cell adhesion to coated shICAM-R, peptide 1-2 mg/ml
T1 construct: whole, on cells; on SKW3, JY, HL-60 cells, neutrophils, or CHO/COS transfectants; also called CD18/CD11a

[2] = biological target: T1, LFA-1 (CD11a/CD18) on cells; assay: JY cell adhesion to plate-bound chimera
[3] = biological target: T1, LFA-1 (CD11a/CD18) on cells; assay: not described
VLA-4 (α4/β1) on cells = biological target: T2, VLA-4 (α4/β1) on cells (UniProt P13612 34-1032; P05556 21-798, limits assumed); assay: not described
T2 construct: whole, on cells; on Jurkat cells, T cells or COS transfectants

[4] = biological target: Mac-1 (CD11b/CD18) on cells (UniProt P11215 17-1152; P05107 23-769); assay: neutrophil adhesion
[5] = biological target: T1, LFA-1 (CD11a/CD18) on cells; assay: neutrophil adhesion
soluble human ICAM-R [6] = biological target: T3, soluble human ICAM-R (human, UniProt P32942 30-485); assay: blocking of biotinylated murine ICR-8.1 (competitor) binding to ICAM-R
T3 construct: baculovirus/Sf-9 product; also called shICAM-R; ICAM-Rt1
T3 chain: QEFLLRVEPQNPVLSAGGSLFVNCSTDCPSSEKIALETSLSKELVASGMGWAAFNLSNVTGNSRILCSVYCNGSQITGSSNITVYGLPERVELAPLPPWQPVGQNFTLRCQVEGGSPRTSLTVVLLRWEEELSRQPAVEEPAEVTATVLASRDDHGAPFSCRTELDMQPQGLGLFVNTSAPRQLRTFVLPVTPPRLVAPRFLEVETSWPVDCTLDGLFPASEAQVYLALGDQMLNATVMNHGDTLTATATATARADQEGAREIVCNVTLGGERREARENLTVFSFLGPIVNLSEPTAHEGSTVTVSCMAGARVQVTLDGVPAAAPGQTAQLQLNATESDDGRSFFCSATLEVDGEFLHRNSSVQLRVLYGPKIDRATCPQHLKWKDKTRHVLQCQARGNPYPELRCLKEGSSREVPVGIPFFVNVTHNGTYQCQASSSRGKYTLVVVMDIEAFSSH

soluble human ICAM-R [7] = biological target: T3, soluble human ICAM-R; assay: ELISA on coated shICAM-R
human ICAM-R [8] = biological target: T4, human ICAM-R (human, UniProt P32942 30-547); assay: cell-based or functional assay
T4 chain: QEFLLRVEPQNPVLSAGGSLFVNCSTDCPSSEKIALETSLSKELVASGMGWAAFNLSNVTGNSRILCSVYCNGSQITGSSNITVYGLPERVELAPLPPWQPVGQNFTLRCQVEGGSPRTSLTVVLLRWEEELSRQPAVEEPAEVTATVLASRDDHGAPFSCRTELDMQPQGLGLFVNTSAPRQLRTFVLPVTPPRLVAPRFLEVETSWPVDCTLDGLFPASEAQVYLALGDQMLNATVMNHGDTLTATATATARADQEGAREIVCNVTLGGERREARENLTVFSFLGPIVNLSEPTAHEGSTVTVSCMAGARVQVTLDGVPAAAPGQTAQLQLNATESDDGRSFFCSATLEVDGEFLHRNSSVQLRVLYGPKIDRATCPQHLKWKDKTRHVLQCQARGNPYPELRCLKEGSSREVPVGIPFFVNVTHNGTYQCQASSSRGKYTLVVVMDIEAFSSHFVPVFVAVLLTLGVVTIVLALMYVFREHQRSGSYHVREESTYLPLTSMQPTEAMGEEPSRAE

[9] = biological target: T5, chimeric Protein 3 (ICAM-R domains 1-3 / ICAM-1) (human, UniProt P05362 317-532); assay: FACS, 5 µg/ml
T5 construct: range 317-532; on COS cells; also called Protein number 3; RD1-3.1D4-5

human ICAM-R [10] = biological target: T4, human ICAM-R; assay: FACS, 5 µg/ml
human ICAM-1 = biological target: T6, human ICAM-1 (human, UniProt P05362 28-532); assay: FACS, 5 µg/ml
T6 construct: whole, on cells; on transfected L or COS cells
T6 sequence (P05362 28-532): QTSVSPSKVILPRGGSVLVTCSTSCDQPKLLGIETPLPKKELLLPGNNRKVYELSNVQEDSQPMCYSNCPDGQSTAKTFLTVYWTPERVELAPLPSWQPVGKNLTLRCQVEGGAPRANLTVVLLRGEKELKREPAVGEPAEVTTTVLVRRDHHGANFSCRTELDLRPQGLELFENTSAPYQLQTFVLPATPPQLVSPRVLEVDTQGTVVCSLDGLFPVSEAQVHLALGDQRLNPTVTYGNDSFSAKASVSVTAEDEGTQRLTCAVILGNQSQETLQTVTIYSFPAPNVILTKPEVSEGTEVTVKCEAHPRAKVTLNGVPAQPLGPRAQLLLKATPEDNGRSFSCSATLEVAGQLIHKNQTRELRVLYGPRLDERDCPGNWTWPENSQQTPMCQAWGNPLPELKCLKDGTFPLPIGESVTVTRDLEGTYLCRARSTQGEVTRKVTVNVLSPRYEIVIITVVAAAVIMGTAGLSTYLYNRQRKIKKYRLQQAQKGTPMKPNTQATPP

T1 sequence (P20701 26-1170, chain 1 of 2): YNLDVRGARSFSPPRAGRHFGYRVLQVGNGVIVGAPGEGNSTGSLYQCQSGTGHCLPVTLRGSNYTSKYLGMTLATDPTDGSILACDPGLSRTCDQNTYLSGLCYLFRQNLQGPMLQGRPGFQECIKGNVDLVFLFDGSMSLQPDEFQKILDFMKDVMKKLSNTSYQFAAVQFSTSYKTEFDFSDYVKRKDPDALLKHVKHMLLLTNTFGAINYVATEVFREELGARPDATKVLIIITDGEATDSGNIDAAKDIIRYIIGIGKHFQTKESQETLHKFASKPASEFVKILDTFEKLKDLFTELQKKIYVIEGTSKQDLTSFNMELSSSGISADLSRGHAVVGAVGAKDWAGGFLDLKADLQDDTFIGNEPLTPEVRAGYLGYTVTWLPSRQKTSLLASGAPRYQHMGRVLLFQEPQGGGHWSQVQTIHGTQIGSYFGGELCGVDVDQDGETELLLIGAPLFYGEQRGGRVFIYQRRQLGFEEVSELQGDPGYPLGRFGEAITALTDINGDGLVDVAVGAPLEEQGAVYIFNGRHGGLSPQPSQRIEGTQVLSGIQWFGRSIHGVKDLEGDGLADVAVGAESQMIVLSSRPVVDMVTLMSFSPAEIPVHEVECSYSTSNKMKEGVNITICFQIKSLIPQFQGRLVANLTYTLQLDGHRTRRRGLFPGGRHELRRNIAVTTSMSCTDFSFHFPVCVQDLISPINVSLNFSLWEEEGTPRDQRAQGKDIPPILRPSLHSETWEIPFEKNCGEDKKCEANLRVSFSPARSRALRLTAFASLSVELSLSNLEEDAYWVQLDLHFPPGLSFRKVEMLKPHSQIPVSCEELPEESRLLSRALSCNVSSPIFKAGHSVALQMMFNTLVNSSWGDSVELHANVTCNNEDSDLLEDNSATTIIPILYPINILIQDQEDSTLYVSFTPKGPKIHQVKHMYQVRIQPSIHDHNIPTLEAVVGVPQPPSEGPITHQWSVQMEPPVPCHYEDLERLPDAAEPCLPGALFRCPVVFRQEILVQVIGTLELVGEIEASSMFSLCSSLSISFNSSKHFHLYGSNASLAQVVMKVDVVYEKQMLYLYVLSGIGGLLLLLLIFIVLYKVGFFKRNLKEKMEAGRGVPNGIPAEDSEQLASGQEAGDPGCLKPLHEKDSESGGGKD
T1 sequence (P05107 23-769, chain 2 of 2): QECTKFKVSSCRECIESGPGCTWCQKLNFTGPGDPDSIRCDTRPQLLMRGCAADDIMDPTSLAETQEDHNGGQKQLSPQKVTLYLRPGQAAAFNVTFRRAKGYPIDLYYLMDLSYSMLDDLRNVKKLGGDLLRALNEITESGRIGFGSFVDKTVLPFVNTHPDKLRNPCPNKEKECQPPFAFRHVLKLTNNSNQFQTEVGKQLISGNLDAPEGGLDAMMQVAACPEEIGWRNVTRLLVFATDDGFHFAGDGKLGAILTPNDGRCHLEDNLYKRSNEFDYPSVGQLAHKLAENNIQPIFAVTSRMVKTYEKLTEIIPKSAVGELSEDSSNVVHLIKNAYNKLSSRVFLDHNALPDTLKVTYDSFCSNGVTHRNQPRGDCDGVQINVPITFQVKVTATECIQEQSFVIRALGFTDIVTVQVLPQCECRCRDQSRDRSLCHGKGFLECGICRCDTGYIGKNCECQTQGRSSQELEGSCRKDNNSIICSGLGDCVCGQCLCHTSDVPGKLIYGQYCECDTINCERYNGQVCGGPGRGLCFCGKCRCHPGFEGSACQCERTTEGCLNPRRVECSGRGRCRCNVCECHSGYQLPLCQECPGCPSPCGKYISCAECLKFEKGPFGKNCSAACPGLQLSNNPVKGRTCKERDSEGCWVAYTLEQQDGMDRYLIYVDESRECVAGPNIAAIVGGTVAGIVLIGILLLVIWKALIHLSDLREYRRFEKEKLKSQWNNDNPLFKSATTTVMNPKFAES

DGQST [ICAM-1 peptide 70-74 (DGQST)]
% Inhibition CD18-Dependent Binding (SKW3) [1]: 0%

B1: domain deletion ICAM-R/IgG chimera with ICAM-R domains 3, 4 and 5 (Fc fusion)
chain: VLPVTPPRLVAPRFLEVETSWPVDCTLDGLFPASEAQVYLALGDQMLNATVMNHGDTLTATATATARADQEGAREIVCNVTLGGERREARENLTVFSFLGPIVNLSEPTAHEGSTVTVSCMAGARVQVTLDGVPAAAPGQTAQLQLNATESDDGRSFFCSATLEVDGEFLHRNSSVQLRVLYGPKIDRATCPQHLKWKDKTRHVLQCQARGNPYPELRCLKEGSSREVPVGIPFFVNVTHNGTYQCQASSSRGKYTLVVVMDIEAFSSH
notes: not shown: human IgG1 hinge, CH2, CH3
binding result [2]: no binding

B2: ICAM-R/IgG variant D231H-Ig (Fc fusion)
chain: QEFLLRVEPQNPVLSAGGSLFVNCSTDCPSSEKIALETSLSKELVASGMGWAAFNLSNVTGNSRILCSVYCNGSQITGSSNITVYGLPERVELAPLPPWQPVGQNFTLRCQVEGGSPRTSLTVVLLRWEEELSRQPAVEEPAEVTATVLASRDDHGAPFSCRTELDMQPQGLGLFVNTSAPRQLRTFVLPVTPPRLVAPRFLEVETSWPVDCTLDGLFPASEAQVYLALGHQMLNATVMNHGDTLTATATATARADQEGAREIVCNVTLGGERREARENLTVFSFLGPIVNLSEPTAHEGSTVTVSCMAGARVQVTLDGVPAAAPGQTAQLQLNATESDDGRSFFCSATLEVDGEFLHRNSSVQLRVLYGPKIDRATCPQHLKWKDKTRHVLQCQARGNPYPELRCLKEGSSREVPVGIPFFVNVTHNGTYQCQASSSRGKYTLVVVMDIEAFSSH
notes: as for B1
binding result [3]: binds
binding result (VLA-4 (α4/β1) on cells): binds

B3: ICAM-R/IgG chimera E37/A (Fc fusion)
chain: QEFLLRVEPQNPVLSAGGSLFVNCSTDCPSSEKIALATSLSKELVASGMGWAAFNLSNVTGNSRILCSVYCNGSQITGSSNITVYGLPERVELAPLPPWQPVGQNFTLRCQVEGGSPRTSLTVVLLRWEEELSRQPAVEEPAEVTATVLASRDDHGAPFSCRTELDMQPQGLGLFVNTSAPRQLRTFVLPVTPPRLVAPRFLEVETSWPVDCTLDGLFPASEAQVYLALGDQMLNATVMNHGDTLTATATATARADQEGAREIVCNVTLGGERREARENLTVFSFLGPIVNLSEPTAHEGSTVTVSCMAGARVQVTLDGVPAAAPGQTAQLQLNATESDDGRSFFCSATLEVDGEFLHRNSSVQLRVLYGPKIDRATCPQHLKWKDKTRHVLQCQARGNPYPELRCLKEGSSREVPVGIPFFVNVTHNGTYQCQASSSRGKYTLVVVMDIEAFSSH
notes: also called ICAM-R E37/A; not shown: human IgG1 hinge, CH2, CH3
binding result [4]: binds
binding result [2]: no binding

B4: ICAM-R/His fusion protein (receptor, not shown: small tags and cut ends)
chain: QEFLLRVEPQNPVLSAGGSLFVNCSTDCPSSEKIALETSLSKELVASGMGWAAFNLSNVTGNSRILCSVYCNGSQITGSSNITVYGLPERVELAPLPPWQPVGQNFTLRCQVEGGSPRTSLTVVLLRWEEELSRQPAVEEPAEVTATVLASRDDHGAPFSCRTELDMQPQGLGLFVNTSAPRQLRTFVLPVTPPRLVAPRFLEVETSWPVDCTLDGLFPASEAQVYLALGDQMLNATVMNHGDTLTATATATARADQEGAREIVCNVTLGGERREARENLTVFSFLGPIVNLSEPTAHEGSTVTVSCMAGARVQVTLDGVPAAAPGQTAQLQLNATESDDGRSFFCSATLEVDGEFLHRNSSVQLRVLYGPKIDRATCPQHLKWKDKTRHVLQCQARGNPYPELRCLKEGSSREVPVGIPFFVNVTHNGTYQCQASSSRGKYTLVVVMDIEAFSSH
notes: CHO product
binding result [5]: binds
binding result [4]: binds

B5: ICAM-R/IgG variant E37T-Ig (Fc fusion)
chain: QEFLLRVEPQNPVLSAGGSLFVNCSTDCPSSEKIALASSLSKELVASGMGWAAFNLSNVTGNSRILCSVYCNGSQITGSSNITVYGLPERVELAPLPPWQPVGQNFTLRCQVEGGSPRTSLTVVLLRWEEELSRQPAVEEPAEVTATVLASRDDHGAPFSCRTELDMQPQGLGLFVNTSAPRQLRTFVLPVTPPRLVAPRFLEVETSWPVDCTLDGLFPASEAQVYLALGDQMLNATVMNHGDTLTATATATARADQEGAREIVCNVTLGGERREARENLTVFSFLGPIVNLSEPTAHEGSTVTVSCMAGARVQVTLDGVPAAAPGQTAQLQLNATESDDGRSFFCSATLEVDGEFLHRNSSVQLRVLYGPKIDRATCPQHLKWKDKTRHVLQCQARGNPYPELRCLKEGSSREVPVGIPFFVNVTHNGTYQCQASSSRGKYTLVVVMDIEAFSSH
notes: as for B1
binding result [3]: no binding

B6: ICR-8.1 miHuVHI/HuVK (antibody, human IgG4, V domains shown)
VH: QIQLVQSGAEVKKPGASVKVSCKASGYTFTDCIILWVRQAPGQGLEWMGKINPYFGTTTYAQKFQGRVTITADTSTSTAYMELSSLRSEDTAVYYCARKEAYPDAMDYWGQGTLVTVSS
VL: DIVMTQSPLSLPVTPGEPASISCRSSQSLVHSNGDTYLHWYLQKPGQSPQLLIYKVSNRFSGVPDRFSGSGSGTDFTLKISRVEAEDVGVYYCSQSTHVPYTFGQGTKVEIK
notes: human IgG4 and human kappa constant regions
fold less well in competition than murine ICR-8.1 (soluble human ICAM-R [6]): ~2 fold
fold improvement in binding over the other recombinant ICR-8.1 antibodies (soluble human ICAM-R [7]): ~2 fold

B7: ICR-8.1 miHuVHI/MuVK (antibody, human IgG4, V domains shown)
VH: QIQLVQSGAEVKKPGASVKVSCKASGYTFTDCIILWVRQAPGQGLEWMGKINPYFGTTTYAQKFQGRVTITADTSTSTAYMELSSLRSEDTAVYYCARKEAYPDAMDYWGQGTLVTVSS
VL: DAVMTQTPLSLPVSLGDQASISCRSSQSLVHSNGDTYLHWYLQKPGQSPQLLIYKVSNRFSGVPDRFSGSGSGTDFTLKLSRVEAEDLGVYFCSQSTHVPYTFGGGTKLEIK
notes: as for B6
fold less well in competition than murine ICR-8.1 (soluble human ICAM-R [6]): ~2 fold
fold improvement in binding over the other recombinant ICR-8.1 antibodies (soluble human ICAM-R [7]): ~2 fold

B8: ICR-1.1 antibody with HuVK (hybrid) (antibody, human IgG4, V domains shown)
VH: QVQLQQSGAELAKPGASVKMSCKASGYTFTVYWMHWVKQRPGQGLEWIGYINPNTDYTEYNQRFQDKATLTADKSSSTAYMQLSSLTSEDSAVYYCARWGGNSYGLDYWGQGTSVTVSS
VL: DIQMTQSPSSLSASVGDRVTITCSASSSVSYIYWYQQKPGKAPKLLIYLTSNLASGVPSRFSGSGSGTDFTLTISSLQPEDFATYYCQQWKSIPLTFGQGTKLEIK
notes: human IgG4 and human kappa constant regions; also called HuVK version
fold deficit in binding against the murine progenitor chain (soluble human ICAM-R [7]): 2 fold

EKIALET [ICAM-R peptide 32-38]
% Inhibition CD18-Dependent Binding (SKW3) [1]: 0%

GERREA [ICAM-R peptide 271-276]
% Inhibition CD18-Dependent Binding (SKW3) [1]: 0%

B9: ICR-8.1 (antibody, mouse IgG1, V domains shown)
VH: EIQLQQTGPELVKPGASVKISCKASGYSFTDCIILWVKQSHGKGLEWIGKINPYFGTTTYNLKFKGKATLTVDKSSSTAHMQLNSLTSEDSAVYYCARKEAYPDAMDYWGQGTSVTVSS
VL: DAVMTQTPLSLPVSLGDQASISCRSSQSLVHSNGDTYLHWYLQKPGQSPQLLIYKVSNRFSGVPDRFSGSGSGTDFTLKLSRVEAEDLGVYFCSQSTHVPYTFGGGTKLEIK
notes: murine IgG1, kappa; also called 46D7E; ATCC HB 11232
IC50 (µg/ml), inhibition of SEA-induced PBL proliferation by plate-bound antibody (human ICAM-R [8]): 1 µg/mL
percent positive COS cell transfectants [9]: 44.9%
percent positive COS cell transfectants (human ICAM-R [10]): 48.9%
percent positive COS cell transfectants (human ICAM-1): 1.08%

GDQML [ICAM-R peptide 230-234 (GDQML)]
% Inhibition CD18-Dependent Binding (SKW3) [1]: 0%
